Results reported in patent US20130309233A1 (SORRENTO THERAPEUTICS, published 2013).
Where a chain is given by its changes, count along the chain named. Where two headings read alike, the source gives them in different places.

B1: A6 (antibody, IgG1, V domains shown)
VH: QVQLVQSGAEVKKPGSSVKVSCKASGGTFRNHAFSWVRQAPGQGLEWMGWISAYNGYTHYAEKLQGRVTMTTDTSTSTAYMELRSLRSDDTAVYYCARVSASYNSDWSLHYYYGMDVWGQGTTVTVSS
VL: QSVLTQPPSVSAAPGQEVTISCSGSNSNIGNNYVSWYQQLPGTAPKLLIYDNNERPSGIPDRFSGSKSGTSATLGITGLQTGDEADYYCGTWDSSLSAGVFGGGTKLTVL
notes: also called EGFR-A6; Clone A6
B2: A6-A7 (antibody, V domains shown)
VH: B1 VH with F34Y, S102E, L109V, T123L
VL: B1 VL with N31P, G90S, W92F, G99A
B3: A6-A5 (antibody, V domains shown)
VH: B1 VH with F34Y, E62S, N104A, T123L
VL: B1 VL with N52T, N53A, G90S, G99V, V100L
B4: A6-A8 (antibody, V domains shown)
VH: B1 VH with F34Y, H59T, S102E, N104A, S105E, T123L
VL: B1 VL with G30P, D51S, N53S, G90S, G99A, V100L
B5: A6-A3 (antibody, V domains shown)
VH: B1 VH with F34W, H59T, E62S, S105E, T123L
VL: B1 VL with G30E, N31P, D51S, N52T, N53A, G90S, G99V
B6: A6-A1 (antibody, V domains shown)
VH: QVQLVQSGAEVKKPGSSVKVSCKASGGTFRNHAWSWVRQAPGQGLEWMGWISAYNGYTHYASKLQGRVTMTTDTSTSTAYMELRSLRSDDTAVYYCARVSAEYAEDWSLHYYYMDVWGQGTLVTVSS
VL: B1 VL with G90S, G99V
B7: A6-A4 (antibody, V domains shown)
VH: B1 VH with F34Y, H59T, E62S, T123L
VL: B1 VL with G30E, D51S, W92F, G99V
B8: D2GA2 (antibody, V domains shown)
VH: EVQLVESGGGVVQPGRSLRLSCAASGFIFHHYAMHWVRQAPGKGLEWVAHISPDGSSKFYADSVKGRFTVSRDNSKNTLYLQMNSLRAEDTAVYYCARFTEVLYYGADIWGQGTLVTVSS
VL: QSVLTQPPSVSEAPRQRVSISCSGSSSNIGNNAVNWYQQLPGKAPKLLIYFDDLLPSGVSDRFSGSKSGTSASLAISGLQSEDEADYYCAAWDDSLKGYVFGTGTKVTVL
B9: D2GC1 (antibody, V domains shown)
VH: B8 VH with I109L
VL: B8 VL with F51Y
B10: D2GG1 (antibody, V domains shown)
VH: B8 VH with I28T, H30S, P53L, I109L
VL: B8 VL with F51Y
B11: D2GC4 (antibody, V domains shown)
VH: B8 VH with A33S, P53S, I109L
VL: QSVLTQPPSVSEAPRQRVSISCSGSSSNIGNNAVNWYQQLPGKAPKLLIYYDDLLPSGVSDRFSGSKSGTSASLAISGLQSEDEADYYCAAWDDSLKGYVFGTGTKVTV
B12: D2GA5 (antibody, V domains shown)
VH: B8 VH with P53I, I109L
VL: B8 VL with F51Y
B13: D2GA6 (antibody, V domains shown)
VH: B8 VH
VL: B8 VL with S57Q
B14: A5 (antibody, IgG1, V domains shown)
VH: EVQLVQSGAEVKKPGASVKVSCKASGGTFSSYAISWVRQAPGQGLEWMGGIIPILGTADYAQKFQGRVTITADESTSTAYMELSSLRSEDTAVYYCARDEIPLEYCTSTSCYHAFDIWGQGTMVTVSS
VL: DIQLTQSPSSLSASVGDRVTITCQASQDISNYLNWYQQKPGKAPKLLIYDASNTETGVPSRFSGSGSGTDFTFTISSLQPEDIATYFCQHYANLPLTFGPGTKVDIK
B15: D6 (antibody, IgG1, V domains shown)
VH: B14 VH with A16S, S17A, Q120R
VL: AIQLTQSPSTLSASVGDRVTITCRASQSISSWLAWYQQKPGKAPKLLIYAASSLQSGVPSRFSGSGSGTDFTLTISSLQPEDFATYYCQQSYSTPLTFGGGTKVEIK
notes: also called EGFR-D6
B16: B4 (antibody, IgG1, V domains shown)
VH: B14 VH with E1Q, A16S, S17A
VL: NIQMTQSPPSLSAFVGDRVTITCQASQAINNYLNWYQQKPGKAPKLLIYDASNLETGVPSRFSGSGSGTDFTFTISSLQPEDNATYYCQQYDKLPLTFGGGTKVEIK
notes: also called EGFR-B4
B17: B1 (antibody, IgG1, V domains shown)
VH: QVQLVQSGGGVVQPGRSLRLSCAASGFIFNHYAMHWVRQAPGKGLEWVAHISSDGSYKFYADSVKGRFTVSRDNSDNTVYLQMNSLGPEDTAVYHCARFTEVLYYGADYWGQGTLVTVSS
VL: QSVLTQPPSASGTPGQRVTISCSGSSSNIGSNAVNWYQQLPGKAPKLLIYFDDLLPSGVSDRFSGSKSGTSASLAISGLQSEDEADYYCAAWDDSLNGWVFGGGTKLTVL
B18: D2GA4 (antibody, V domains shown)
VH: B8 VH with P53S, I109L
VL: B8 VL with N31D, F51Y, L55H
B19: D2 GB8 (antibody, V domains shown)
VH: B8 VH with S57Y
VL: B8 VL with F51Y, D61N
B20: D2 (antibody, IgG1, V domains shown)
VH: B17 VH with Q1E, Q6E
VL: B8 VL
notes: also called EGFR-D2; Clone D2
B21: B5 (antibody, IgG1, V domains shown)
VH: QMQLVQSWAEVKKPGASVKVSCKASAYTFTNYYIHWVRQAPGQGLEWMGIINPSSGATTYAQRLQGRVIMTRDTSTSTVNMELSSLRSEDTAVYYCARSTLWFSEFDYWGQGTLVTVSS
VL: QSVLTQPASVSGSPGQSITISCTGTTSDVGGFNYVSWYQQHPGKVPKLIIFDVSNRPSSVSDRFSGSKSVNTASLTISGLQAEDEADYYCSSYTDSGSYIFGTGTKVTVL

Assays:
[1] = molecular target: T1, EGFR expressed on the surface of cells (A431, A549, MCF7 and other EGFR-expressing cell lines) (human, UniProt P00533 25-1210); assay: flow cytometry on A431 cells, blocking of biotinylated human EGF binding (competitor: Human EGF Biotinylated Fluorokine)
T1 construct: whole, on cells; also called EGF Receptor; cell surface EGFR
Experimental: Cells were finally resuspended in 25 μl FACS Buffer and the median fluorescence intensity in the FL1-H channel was determined using an Intellicyt HTFC flow cytometer. […] Data was analyzed and plotted in Graph Pad Prizm using non-linear regression fit. Data points are shown as the median fluorescence intensity (MFI)+/−Std Error.

[2] = molecular target: T1, EGFR expressed on the surface of cells …; assay: cell-based or functional assay
[3] = molecular target: T1, EGFR expressed on the surface of cells …; assay: flow cytometry on A431 cells, 12-point titration, PE anti-human IgG
Experimental: (§1) In this example, the experimental procedure was as follows: 50,000 A431 cells were aliquoted into the wells of a 96-well, v-bottom plate in 100 ul FACS Buffer (PBS+2% FBS). […] Cells were spun down, washed 1× with FACS Buffer, and then resuspended in 25 μl of antibody solution in triplicate. […] Cells were further incubated for 0.5 hr and then washed 1× with FACS Buffer. Cells were resuspended in 25 ul FACS Buffer and the median fluorescence intensity in the FL2-H channel was determined using the Intellicyt HTFC flow cytometer.
(§2) Data was analyzed and plotted in Graph Pad Prizm using non-linear regression fit. Data points are shown as the median fluorescence intensity (MFI) of positively labeled cells+/−Std Error.

[4] = molecular target: T1, EGFR expressed on the surface of cells …; assay: cell-based or functional assay; remark: listed apart in the source
[5] = molecular target: T1, EGFR expressed on the surface of cells …; assay: flow cytometry on A431 cells (FIG. 2 legend; the same experiment as paragraph 158, printed with another rounding); A431 cells; FIG. 2 legend
Experimental: as §1, §2

[6] = molecular target: T1, EGFR expressed on the surface of cells …; assay: cell-based or functional assay; remark: listed apart in the source
[7] = molecular target: T1, EGFR expressed on the surface of cells …; assay: binding of purified IgG to EGFR-expressing cell lines

Binder	IC50 (M), inhibition of EGF-stimulated EGFR auto-phosphorylation in A549 cells [4]	IC50 (M), inhibition of EGF-stimulated EGFR auto-phosphorylation in A549 cells [6]	other results
B1	1.1e-09 M	–	IC50 [1]: 2.06 nM; ADCC Reporter Bioassay (luciferase, RLU) on A431 target cells, EC50 [2]: 0.06 nM; decrease in EGF stimulated receptor phosphorylation assay in EGFR positive cells (A431) [2]: ~10%; EC50 [3]: 1.3 nM; EC50 [5]: 1.29 nM
B2	5.6e-10 M	–	–
B3	1.1e-09 M	–	–
B4	6e-10 M	–	–
B5	1.1e-09 M	–	–
B6	5.1e-10 M	–	–
B7	1.05e-09 M	–	–
B8	–	1.8e-10 M	–
B9	–	2e-10 M	–
B10	–	8.9e-10 M	–
B11	–	2.8e-10 M	–
B12	–	2.3e-10 M	–
B13	–	2.2e-10 M	–
B14	–	–	decrease in EGF stimulated receptor phosphorylation assay in EGFR positive cells (A431) [2]: ~10%
B15	–	–	binding result [7]: binds
B16	–	–	binding result [7]: binds
B17	–	–	binding result [7]: binds
B18	–	1.7e-10 M	–
B19	–	8.6e-10 M	–
B20	–	1.3e-09 M	IC50 [1]: 1.35 nM; ADCC Reporter Bioassay (luciferase, RLU) on A431 target cells, EC50 [2]: 0.2 nM; EC50 [3]: 0.28 nM
B21	–	–	decrease in EGF stimulated receptor phosphorylation assay in EGFR positive cells (A431) [2]: ~10%
